From publication PMC5698441, “Molecular basis of AKAP79 regulation by calmodulin” (Nature Communications, 2017)

Target: T1, biotin-CaM and GST-AKAP79 (1–153) (Homo sapiens, UniProt P0DP23)
T1 construct: made in house; host or cells: E. coli BL21 (DE3)
Experiment: alphascreen disruption of biotin-CaM / GST-AKAP79 (1–153) interaction
Assay type: binding
Conditions: 20-mer scanning peptides at 100 nM; biotin-CaM 10 nM; 1 mM CaCl2, 20 mM HEPES pH 7.2; preincubation 1 h 22 °C; mean ± s.e.m., n = 5 (Fig. 2d)
Method: To examine whether this could correspond to the CaM-binding site in AKAP79, we used a complementary method - the amplified luminescent proximity homogenous assay (alpha)-screen technique-to scan the N-terminus of AKAP79 for sequences that could mediate interactions with CaM. […] We screened peptides derived from the N-terminus of AKAP79 for their ability to reduce alphascreen emission. […] The effect of each peptide at 100 nM concentration on CaM–AKAP79 (1–153) interaction is shown in Fig. 2d as log2 emission ratios (with/without peptide).
To determine whether these basic amino acids contribute to the interaction, we compared how effectively peptides of different lengths could disrupt CaM–AKAP79 interaction.
In general, assays were performed in 50 μL buffer consisting of 20 mM HEPES pH 7.2, 100 mM NaCl, 0.1% BSA, 1 mM EGTA, 5 mM MgCl2, 1 mM CaCl2. CaCl2 was excluded where appropriate.
To determine the K Ca for CaM binding to calcineurin and AKAP79, the CaCl2 concentration was varied to produce different free Ca^2+ concentrations on the basis of calculations using maxchelator[43]. After initial incubations, anti-GST acceptor beads (PerkinElmer) were added at 10 ng/μL. […] After 1 h further incubation with vigorous shaking in a thermomixer (1200 r.p.m.), light emission at 568 nm was measured following excitation with a 680 nm laser using a Mithras LB 940 (Berthold Technologies). […]

In the case of “D: 20-mer peptide of the AKAP79 N-terminus walk, positions 36-55 (CFKRRKKAAKALKPKAGSEA; UniProt P24588 36-55, looked up, fragment)”, the “alphascreen signal compared to untreated samples (emission ratio with/without peptide)” value is reported as “did not”.
